Test results taken from PMC10952772 (The Febs Journal, 2022).
Where two headings read alike, the source gives them in different places.

T1: Human Scribble (SCRIB) PDZ3 domain (1002-1094) (human, UniProt Q14160 1002-1094)
T1 sequence: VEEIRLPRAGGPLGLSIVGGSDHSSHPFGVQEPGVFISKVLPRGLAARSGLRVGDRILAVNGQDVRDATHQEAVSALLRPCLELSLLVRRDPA

T2: Human Scribble (SCRIB) PDZ4 domain (1099-1203) (human, UniProt Q14160 1099-1203)
T2 sequence: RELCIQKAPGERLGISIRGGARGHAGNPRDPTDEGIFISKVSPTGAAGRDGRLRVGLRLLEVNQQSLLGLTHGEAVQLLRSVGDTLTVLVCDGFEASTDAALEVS

B1: Human Scribble (SCRIB) PDZ2 domain (860-950) (domain or fragment)
chain: RHVACLARSERGLGFSIAGGKGSTPYRAGDAGIFVSRIAEGGAAHRAGTLQVGDRVLSINGVDVTEARHDHAVSLLTAASPTIALLLEREA

Columns and labels:
PDZ = conditions: phosphorylated at the −2 position; ref [51], [52]; cited from earlier work
[1] = biological target: B1; test: ITC
[2] = biological target: T1, Human Scribble (SCRIB) PDZ3 domain …; test: ITC
[3] = biological target: T3, Human Scribble (SCRIB) PDZ1 domain (728-815) (human, UniProt Q14160 728-815); test: ITC
T3 sequence (Q14160 728-815): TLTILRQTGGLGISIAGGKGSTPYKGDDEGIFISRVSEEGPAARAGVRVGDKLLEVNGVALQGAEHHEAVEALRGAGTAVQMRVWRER

[4] = biological target: T2, Human Scribble (SCRIB) PDZ4 domain …; test: ITC
AUC = biological target: the molecule itself; test: AUC
[5] = biological target: B1; test: ITC; remark: listed apart in the source
[6] = biological target: T1, Human Scribble (SCRIB) PDZ3 domain …; test: ITC; remark: listed apart in the source
[7] = biological target: T3, Human Scribble (SCRIB) PDZ1 domain …; test: ITC; remark: listed apart in the source
[8] = biological target: T2, Human Scribble (SCRIB) PDZ4 domain …; test: ITC; remark: listed apart in the source

For “HTLV‐1 Tax1: oncogenic Tax1 protein of HTLV‐1”, the “effect of phosphorylation at the −2 position of PBM on PDZ recognition” value (PDZ) is given as “phosphorylation inhibiting PDZ recognition”.

With RSWFETWV [Superpeptide (RSWFETWV)] the Kd [1] was 2200 nM, the dH [1] was -7.04 kcal/mol and the “stoichiometry N” value [1] was 1. The Kd [2] was 1600 nM, the dH [2] was -11.3 kcal/mol and the “stoichiometry N” value [2] was 0.9. The Kd [3] was 600 nM, the dH [3] was -3.72 kcal/mol and the “stoichiometry N” value [3] was 0.9. For the same molecule, the Kd [4] was 12.6 µM, the dH [4] was -2.9 kcal/mol and the “stoichiometry N” value [4] was 1.1.

With B1 the “stoichiometry N” value (AUC) was 2.

In the case of KHFRETEV [HTLV-1 Tax1 PBM peptide (KHFRETEV, residues 346-353)], the Kd [5] is reported as 15.4 µM, the dH [5] is reported as -4.08 kcal/mol and the “stoichiometry N” value [5] is reported as 1.1. For the same molecule, the Kd [6] was 9.1 µM, the dH [6] was -13.3 kcal/mol and the “stoichiometry N” value [6] was 0.9. The Kd [7] was 7.8 µM, the dH [7] was -4.21 kcal/mol and the “stoichiometry N” value [7] was 1.1. The Kd [8] was 40.2 µM, the dH [8] was -2.17 kcal/mol and the “stoichiometry N” value [8] was 1.
